The values below come from patent US20210155670A1 (University of California, published 2021).

Assay [1] deals with T1, Whole Z1 construct (B2m, HLA-A*02:01, FOS), leucine-zippered single-chain MHC-I (human).
T1 construct: also called single-chain-Fos; single-chain MHC-I-B2M protein
As to the kind of experiment: co-expression in CHO cells, purification by the Strep tag on TAPBPR, SDS PAGE.

The target in assay [2] is single-chain HLA-A*24:02 (beta2 microglobulin-linker-HLA-A*24:02 ectodomain-AviTag), TEV-digested, CHO-derived (human). As to the kind of experiment: co-expression, Strep tag purification, TEV digestion, size exclusion chromatography. In general terms: Size exclusion chromatography separates by hydrodynamic size, large species first.
For assay [3], the target named is T2, single-chain MHC-I (beta2 microglobulin-(GGGS)4-HLA-A*02:01 ectodomain-AviTag), TEV-digested (unzippered), … (human).
T2 construct: also called peptide receptive MHC-I complex; unzippered MHC-I
As to the kind of experiment: size exclusion chromatography after TEV cleavage.

B1: Whole Z2 construct (TAPBPR, JUN), leucine-zippered TAPBPR with Strep tags (other)
chain: KPHPAEGQWRAVDVVLDCFLVKDGAHRGALASSEDRARASLVLKQVPVLDDGSLEDFTDFQGGTLAQDDPPIIFEASVDLVQIPQAEALLHADASGKEVTCEISRYFLQMTETTVKTAAWFMANVQVSGGGPSISLVMKTPRVAKNEVLWHPTLNLPLSPQGTVRTAVEFQVMTQTQSLSFLLGSSASLDCGFSMAPGLDLISVEWRLQHKGRGQLVYSWTAGQGQAVRKGATLEPAQLGMARDASLTLPGLTIQDEGTYICQITTSLYRAQQIIQLNIQASPKVRLSLANEALLPTLICDIAGYYPLDVVVTWTREELGGSPAQVSGASFSSLRQSVAGTYSISSSLTAEGSAGATYTCQVTHISLEEPLGASTQVVPPERRLEGAGGSGGGGSGGGASGGGGSENLYFQSSGGGGSKVDGGGGGRIARLEEKVKTLKAQNSELASTANMLREQVAQLKQVMNWSHPQFEKGGGSGGGSGGSAWSHPQFEKAA
With B1, in assay [1], the binding result is recorded as “binds”.

B2: TAPBPR (luminal domain, C94A), TEV-digested (unzippered) (other)
chain: KPHPAEGQWRAVDVVLDCFLVKDGAHRGALASSEDRARASLVLKQVPVLDDGSLEDFTDFQGGTLAQDDPPIIFEASVDLVQIPQAEALLHADASGKEVTCEISRYFLQMTETTVKTAAWFMANVQVSGGGPSISLVMKTPRVAKNEVLWHPTLNLPLSPQGTVRTAVEFQVMTQTQSLSFLLGSSASLDCGFSMAPGLDLISVEWRLQHKGRGQLVYSWTAGQGQAVRKGATLEPAQLGMARDASLTLPGLTIQDEGTYICQITTSLYRAQQIIQLNIQASPKVRLSLANEALLPTLICDIAGYYPLDVVVTWTREELGGSPAQVSGASFSSLRQSVAGTYSISSSLTAEGSAGATYTCQVTHISLEEPLGASTQVVPPERRLEGAGGSGGGGSGGGASGGGGSENLYFQS
notes: also called un-zippered (TEV cleaved) TAPBPR; chaperone TAPBPR
In the case of B2, the binding result in assay [2] and in assay [3] was “binds” each time.
